The text below walks through data of paper PMC6477179.

B1: GFP-FIP200 CTR aa 1458-1594 [human] / GST-p62 FIR 4P [human] (parent)
chain 1: RIMLLERTLQLKEEENKRLNQRLMSQSMSSVSSRHSEKIAIRDFQVGDLVLIILDERHDNYVLFTVSPTLYFLHSESLPALDLKPGEGASGASRRPWVLGKVMEKEYCQAKKAQNRFKVPLGTKFYRVKAVSWNKKV
chain 2: MESDNCSGGDDDWTHLSSKEVDPDTGELQSLQMPESEGPDDLDPDQEGPTGLKEA

In the test the parent is B1. As to the kind of experiment: GSH bead recruitment assay imaged by microscopy. To be noted: with GST-p62 FIR 4P [human];; read off a plot.
With chain 1 N60F, the percent of parent was 56%.

Regarding chain 1 N60A, the percent of parent came to 95%.

On to chain 1 R116D, for which the percent of parent is 21%.

Regarding chain 1 F117A, the percent of parent is 19%.

On to chain 1 F117W, for which the percent of parent came out at 80%.

For the variant chain 1 L78F, the percent of parent came out at 92%.

Take chain 1 L78A: the percent of parent worked out at 100%.

chain 1 R127A: the percent of parent came to 21%.

Consider chain 1 S75A, for which the percent of parent was 83%.
